The results in this text go back to patent US20080171343A1 (UNIVERSITY OF MANCHESTER, published 2008).

The target in experiment [1] is T1, deglycosylated FMOD (bovine, UniProt P13605 19-376, N-linked oligosaccharides (including keratan sulphate) removed with N-glycosidase F).
T1 construct: The same polypeptide as FMOD, without its N-linked glycans; also called N-glycosidase F-treated FMOD
T1 sequence (looked up): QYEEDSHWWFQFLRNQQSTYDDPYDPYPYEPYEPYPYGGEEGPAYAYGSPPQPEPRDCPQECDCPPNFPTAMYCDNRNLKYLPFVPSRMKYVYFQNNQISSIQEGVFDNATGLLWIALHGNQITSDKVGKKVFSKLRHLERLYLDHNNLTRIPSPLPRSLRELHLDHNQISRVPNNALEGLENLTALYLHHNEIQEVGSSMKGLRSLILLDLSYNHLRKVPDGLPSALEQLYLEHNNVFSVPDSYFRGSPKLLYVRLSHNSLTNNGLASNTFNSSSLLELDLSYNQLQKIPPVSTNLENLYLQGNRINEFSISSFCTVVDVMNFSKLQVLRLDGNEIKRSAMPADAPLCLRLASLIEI
The experiment can be described thus: microtitre plate assay, deglycosylated against untreated FMOD coated.

The target in experiment [2] is T2, fibromodulin (bovine, UniProt P13605 19-376, glycosylated (N-linked oligosaccharides including keratan sulphate), as isolated).
T2 construct: Isolated from tissue; coated on microtitre plates at 10 ug/ml; also called FMOD; untreated (glycosylated) FMOD
T2 sequence (looked up): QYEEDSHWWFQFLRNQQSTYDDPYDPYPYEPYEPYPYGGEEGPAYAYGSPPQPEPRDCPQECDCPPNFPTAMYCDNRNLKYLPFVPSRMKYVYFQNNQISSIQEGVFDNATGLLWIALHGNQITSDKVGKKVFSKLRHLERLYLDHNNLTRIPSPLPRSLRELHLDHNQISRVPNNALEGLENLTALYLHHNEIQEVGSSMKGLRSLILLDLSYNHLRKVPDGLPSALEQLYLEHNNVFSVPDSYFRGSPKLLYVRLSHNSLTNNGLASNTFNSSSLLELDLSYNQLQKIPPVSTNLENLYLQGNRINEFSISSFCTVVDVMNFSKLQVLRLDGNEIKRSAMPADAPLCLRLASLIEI
As to the kind of experiment: plate assay: FMOD coated on microtitre wells at 10 ug/ml, biotinylated protein in fluid phase, detection with streptavidin peroxidase kit, A490, background subtracted. The method, then: FIG. 12: Binding of FHCCP6-8(H384), FHCCP6-8(Y384) and full length FH to FMOD. A. FMOD was coated in microtitre plate wells at a concentration of 10 μg/ml. BSA was used as the negative coating control. FHCCP6-8(H384) and FHCCP6-8(Y384) recombinant proteins or full length FH were incubated in fluid phase and bound protein was detected with a specific polyclonal antibody. B. FMOD was coated in microtitre plate wells as described for A. Biotinylated versions of FHCCP6-8(H384) and FHCCP6-8(Y384) were incubated in the wells and bound protein was detected with a streptavidin peroxidase kit. C. Untreated (glycosylated) and N-glycosidase F-treated FMOD were assessed for binding full length FH in a microtitre plate based binding assay. Bound protein was detected with a specific polyclonal antibody. […]
CRP or FMOD was coated overnight at 4° C. onto microtiter plates (Maxisorp, Nunc) at a concentration of 10 μg/ml in 75 mM sodium carbonate buffer, pH 9.6. […] The amount of bound protein was assessed using a goat polyclonal anti-FH antibody (Quidel, Cat # A312) followed by HRP-labeled anti-goat secondary antibodies (Dako) and the OPD development kit (Dako). Detection of biotinylated protein was performed using a StreptABComplex/HRP-kit from Dako, and in both cases the absorbance at 490 nm was measured to quantify protein binding.

Experiment [3] concerns the target T3, C-reactive protein (UniProt P02741 19-224).
T3 construct: Bought; Coated on microtitre plates at 10 ug/ml; also called CRP; recombinant CRP
T3 sequence (looked up): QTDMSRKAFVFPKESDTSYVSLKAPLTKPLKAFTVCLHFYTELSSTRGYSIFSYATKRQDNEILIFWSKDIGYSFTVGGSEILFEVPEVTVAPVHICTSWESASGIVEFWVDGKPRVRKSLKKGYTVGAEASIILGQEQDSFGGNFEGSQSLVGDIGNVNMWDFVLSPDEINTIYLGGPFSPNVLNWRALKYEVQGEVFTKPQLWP
As to the kind of experiment: plate assay: CRP coated on microtitre wells (10 ug/ml), unlabelled protein in fluid phase, detection with goat polyclonal anti-FH antibody and HRP secondary, A490, background subtracted. The method, then: CRP or FMOD was coated overnight at 4° C. onto microtiter plates (Maxisorp, Nunc) at a concentration of 10 μg/ml in 75 mM sodium carbonate buffer, pH 9.6. Wells treated only with coating buffer or 1% (w/v) BSA (Sigma) in coating buffer (for the assays involving FMOD) were used as negative controls. Between each step the wells were washed extensively with 50 mM Tris-HCl, 150 mM NaCl, 0.1% (v/v) Tween 20, pH 7.5. All wells were blocked with 1% (w/v) BSA (Sigma) in phosphate buffered saline (Invitrogen) for 1 hour at 37° C. FHCCP6-8(H384) and FHCCP6-8(Y384) were added at varrying concentrations in the binding buffer (50 mM HEPES, 100 mM NaCl, 2 mM CaCl₂, pH 7.4); full length FH served as a positive control. In the experiments with FMOD, 50 μg/ml BSA was included in the binding buffer. The amount of bound protein was assessed using a goat polyclonal anti-FH antibody (Quidel, Cat # A312) followed by HRP-labeled anti-goat secondary antibodies (Dako) and the OPD development kit (Dako). Detection of biotinylated protein was performed using a StreptABComplex/HRP-kit from Dako, and in both cases the absorbance at 490 nm was measured to quantify protein binding.

B1: FHCCP6-8(Y384) (other)
chain: GTLKPCDYPDIKHGGLYHENMRRPYFPVAVGKYYSYYCDEHFETPSGSYWDHIHCTQDGWSPAVPCLRKCYFPYLENGYNQNYGRKFVQGKSIDVACHPGYALPKAQTTVTCMENGWSPTPRCIRVKTCSKSSIDIENGFISESQYTYALKEKAKYQCKLGYVTADGETSGSITCGKDGWSAQPTCI
modifications: in some assays biotinylated with EZlink N-hydroxysuccinimide-LC Biotin (sites not given)
notes: Made by site-directed mutagenesis (H384Y) of FHCCP6-8(H384); also called FHCCP68 (Y384 allotype); Y384 variant
By EC50 (read off the curve) is commonly meant the midpoint of the concentration-response curve. A high value points to lower potency in that assay. Turning to B1, the binding result in experiment [1] and in experiment [2] was “binds” in each case. Also, the “EC50 (read off the curve)” value in experiment [3] was ~1 µg/mL.

B2: FHCCP6-8(H384) (other)
chain: GTLKPCDYPDIKHGGLYHENMRRPYFPVAVGKYYSYYCDEHFETPSGSYWDHIHCTQDGWSPAVPCLRKCYFPYLENGYNQNHGRKFVQGKSIDVACHPGYALPKAQTTVTCMENGWSPTPRCIRVKTCSKSSIDIENGFISESQYTYALKEKAKYQCKLGYVTADGETSGSITCGKDGWSAQPTCI
modifications: in some assays biotinylated with EZlink N-hydroxysuccinimide-LC Biotin (sites not given)
notes: Used unlabelled (detected with a goat polyclonal anti-FH antibody) or biotinylated; also called FHCCP68 (H384 allotype); H384 variant
B2: the binding result in experiment [1] and in experiment [2] was “binds” each time.
